Source: PMC10786891, “Massively parallel profiling of RNA-targeting CRISPR-Cas13d”

T1: EsCas13d, nuclease-dead (Eubacterium siraeum, UniProt B0MS50, R295A;H300A;R849A;H854A)
T1 sequence: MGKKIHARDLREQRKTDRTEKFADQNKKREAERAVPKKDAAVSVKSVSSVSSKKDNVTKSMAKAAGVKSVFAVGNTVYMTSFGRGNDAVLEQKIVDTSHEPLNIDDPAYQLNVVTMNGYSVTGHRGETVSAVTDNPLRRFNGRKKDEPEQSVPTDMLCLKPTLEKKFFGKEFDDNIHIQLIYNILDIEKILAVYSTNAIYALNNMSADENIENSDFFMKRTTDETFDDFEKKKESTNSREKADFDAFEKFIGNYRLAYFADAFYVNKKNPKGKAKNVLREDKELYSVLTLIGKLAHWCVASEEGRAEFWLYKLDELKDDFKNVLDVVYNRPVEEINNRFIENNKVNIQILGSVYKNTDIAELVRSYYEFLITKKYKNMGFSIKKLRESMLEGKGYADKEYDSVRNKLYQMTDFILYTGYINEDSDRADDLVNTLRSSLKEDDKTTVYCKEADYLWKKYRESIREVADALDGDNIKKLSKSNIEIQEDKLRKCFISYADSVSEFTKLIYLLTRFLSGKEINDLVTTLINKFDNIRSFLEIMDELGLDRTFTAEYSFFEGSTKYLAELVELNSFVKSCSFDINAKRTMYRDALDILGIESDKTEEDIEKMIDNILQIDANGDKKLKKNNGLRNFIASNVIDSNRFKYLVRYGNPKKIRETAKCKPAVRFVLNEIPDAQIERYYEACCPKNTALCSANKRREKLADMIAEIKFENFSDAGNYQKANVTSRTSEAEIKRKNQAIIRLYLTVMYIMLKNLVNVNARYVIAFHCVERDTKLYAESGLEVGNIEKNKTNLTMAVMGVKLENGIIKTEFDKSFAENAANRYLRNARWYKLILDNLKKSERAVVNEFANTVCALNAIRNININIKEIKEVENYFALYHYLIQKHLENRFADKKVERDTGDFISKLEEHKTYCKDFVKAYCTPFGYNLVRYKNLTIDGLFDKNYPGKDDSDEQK


biological target: T1, EsCas13d, nuclease-dead; assay: crRNA (strand 1, pre-loaded); Mg2+; 40 mM Tris-HCl pH 7.5, 150 mM NaCl, 6 mM MgCl2, 1 mM DTT, 0.1% Tween-20, 0.2 mg/ml BSA; 25 C; 10 min per concentration, then washed; conditions: tags: His6-TwinStrep-SUMO cleaved; N-terminal SNAP kept (SNAP-Surface 488); label: 3' end held by stalled T7 RNA polymerase

Binder	Kd
target 1 C2A,A9C (mixed) RNA 1: CACCCGUGCAAAAAUGCAGGGGUCUAAAACUGAGCGGAUAACCUCUCUAUGG RNA 2: GGGAAUGGAUCCACAUCUACGAAUUCGUACCAUAGAGAGGUUCUCCGCUAACCGAGAUCGGAAGAGCACACGU	12.2 ± 0.4 nM
target 1 insU 3' of 15,insU 3' of 9 (mixed) RNA 1: CACCCGUGCAAAAAUGCAGGGGUCUAAAACUGAGCGGAUAACCUCUCUAUGG RNA 2: GGGAAUGGAUCCACAUCUACGAAUUCGUACCAUAGAGUAGGUUAUUCCGCUCACCGAGAUCGGAAGAGCACACGU	59 ± 16 nM
target 1 insC 3' of 19,insC 3' of 11 (mixed) RNA 1: CACCCGUGCAAAAAUGCAGGGGUCUAAAACUGAGCGGAUAACCUCUCUAUGG RNA 2: GGGAAUGGAUCCACAUCUACGAAUUCGUACCAUCAGAGAGGUCUAUCCGCUCACCGAGAUCGGAAGAGCACACGU	48 ± 9 nM
target 1 A1U,G15C (mixed) RNA 1: CACCCGUGCAAAAAUGCAGGGGUCUAAAACUGAGCGGAUAACCUCUCUAUGG RNA 2: GGGAAUGGAUCCACAUCUACGAAUUCGUACCAUAGACAGGUUAUCCGCUCUCCGAGAUCGGAAGAGCACACGU	56 ± 24 nM
target 1 insG 3' of 22,insA 3' of 6 (mixed) RNA 1: CACCCGUGCAAAAAUGCAGGGGUCUAAAACUGAGCGGAUAACCUCUCUAUGG RNA 2: GGGAAUGGAUCCACAUCUACGAAUUCGUACGCAUAGAGAGGUUAUCCAGCUCACCGAGAUCGGAAGAGCACACGU	54 ± 18 nM
target 1 C7G,G13A (mixed) RNA 1: CACCCGUGCAAAAAUGCAGGGGUCUAAAACUGAGCGGAUAACCUCUCUAUGG RNA 2: GGGAAUGGAUCCACAUCUACGAAUUCGUACCAUAGAGAAGUUAUGCGCUCACCGAGAUCGGAAGAGCACACGU	15.8 ± 1.5 nM
target 1 C6U,U10A (mixed) RNA 1: CACCCGUGCAAAAAUGCAGGGGUCUAAAACUGAGCGGAUAACCUCUCUAUGG RNA 2: GGGAAUGGAUCCACAUCUACGAAUUCGUACCAUAGAGAGGUAAUCUGCUCACCGAGAUCGGAAGAGCACACGU	9.8 ± 0.4 nM
target 1 C6G,C7G (mixed) RNA 1: CACCCGUGCAAAAAUGCAGGGGUCUAAAACUGAGCGGAUAACCUCUCUAUGG RNA 2: GGGAAUGGAUCCACAUCUACGAAUUCGUACCAUAGAGAGGUUAUGGGCUCACCGAGAUCGGAAGAGCACACGU	13.3 ± 0.7 nM
target 1 insC 3' of 22,insA 3' of 12 (mixed) RNA 1: CACCCGUGCAAAAAUGCAGGGGUCUAAAACUGAGCGGAUAACCUCUCUAUGG RNA 2: GGGAAUGGAUCCACAUCUACGAAUUCGUACCCAUAGAGAGGAUUAUCCGCUCACCGAGAUCGGAAGAGCACACGU	42 ± 5 nM
target 1 insG 3' of 6 (mixed) RNA 1: CACCCGUGCAAAAAUGCAGGGGUCUAAAACUGAGCGGAUAACCUCUCUAUGG RNA 2: GGGAAUGGAUCCACAUCUACGAAUUCGUACCAUAGAGAGGUUAUCCGGCUCACCGAGAUCGGAAGAGCACACGU	11.4 ± 0.5 nM
target 1 insA 3' of 10,insU 3' of 5 (mixed) RNA 1: CACCCGUGCAAAAAUGCAGGGGUCUAAAACUGAGCGGAUAACCUCUCUAUGG RNA 2: GGGAAUGGAUCCACAUCUACGAAUUCGUACCAUAGAGAGGUUAAUCCGUCUCACCGAGAUCGGAAGAGCACACGU	14.2 ± 1.1 nM
target 1 insA 3' of 19,insG 3' of 4 (mixed) RNA 1: CACCCGUGCAAAAAUGCAGGGGUCUAAAACUGAGCGGAUAACCUCUCUAUGG RNA 2: GGGAAUGGAUCCACAUCUACGAAUUCGUACCAUAAGAGAGGUUAUCCGCGUCACCGAGAUCGGAAGAGCACACGU	15.1 ± 0.7 nM
target 1 insU 3' of 15,insU 3' of 12 (mixed) RNA 1: CACCCGUGCAAAAAUGCAGGGGUCUAAAACUGAGCGGAUAACCUCUCUAUGG RNA 2: GGGAAUGGAUCCACAUCUACGAAUUCGUACCAUAGAGUAGGUUUAUCCGCUCACCGAGAUCGGAAGAGCACACGU	8.1 ± 0.4 nM
target 1 G17A,A18C (mixed) RNA 1: CACCCGUGCAAAAAUGCAGGGGUCUAAAACUGAGCGGAUAACCUCUCUAUGG RNA 2: GGGAAUGGAUCCACAUCUACGAAUUCGUACCAUCAAGAGGUUAUCCGCUCACCGAGAUCGGAAGAGCACACGU	67 ± 10 nM
target 1 insC 3' of 22,insG 3' of 16 (mixed) RNA 1: CACCCGUGCAAAAAUGCAGGGGUCUAAAACUGAGCGGAUAACCUCUCUAUGG RNA 2: GGGAAUGGAUCCACAUCUACGAAUUCGUACCCAUAGAGGAGGUUAUCCGCUCACCGAGAUCGGAAGAGCACACGU	75 ± 21 nM
target 1 insC 3' of 14,insG 3' of 10 (mixed) RNA 1: CACCCGUGCAAAAAUGCAGGGGUCUAAAACUGAGCGGAUAACCUCUCUAUGG RNA 2: GGGAAUGGAUCCACAUCUACGAAUUCGUACCAUAGAGACGGUUGAUCCGCUCACCGAGAUCGGAAGAGCACACGU	43 ± 10 nM
target 1 U19A (mixed) RNA 1: CACCCGUGCAAAAAUGCAGGGGUCUAAAACUGAGCGGAUAACCUCUCUAUGG RNA 2: GGGAAUGGAUCCACAUCUACGAAUUCGUACCAAAGAGAGGUUAUCCGCUCACCGAGAUCGGAAGAGCACACGU	28.8 ± 1.5 nM
target 1 insU 3' of 22 (mixed) RNA 1: CACCCGUGCAAAAAUGCAGGGGUCUAAAACUGAGCGGAUAACCUCUCUAUGG RNA 2: GGGAAUGGAUCCACAUCUACGAAUUCGUACUCAUAGAGAGGUUAUCCGCUCACCGAGAUCGGAAGAGCACACGU	38 ± 5 nM
target 1 U10C,A16C (mixed) RNA 1: CACCCGUGCAAAAAUGCAGGGGUCUAAAACUGAGCGGAUAACCUCUCUAUGG RNA 2: GGGAAUGGAUCCACAUCUACGAAUUCGUACCAUAGCGAGGUCAUCCGCUCACCGAGAUCGGAAGAGCACACGU	95 ± 8 nM
target 1 insU 3' of 12,insC 3' of 3 (mixed) RNA 1: CACCCGUGCAAAAAUGCAGGGGUCUAAAACUGAGCGGAUAACCUCUCUAUGG RNA 2: GGGAAUGGAUCCACAUCUACGAAUUCGUACCAUAGAGAGGUUUAUCCGCUCCACCGAGAUCGGAAGAGCACACGU	8.3 ± 0.6 nM
target 1 G5U,A16C (mixed) RNA 1: CACCCGUGCAAAAAUGCAGGGGUCUAAAACUGAGCGGAUAACCUCUCUAUGG RNA 2: GGGAAUGGAUCCACAUCUACGAAUUCGUACCAUAGCGAGGUUAUCCUCUCACCGAGAUCGGAAGAGCACACGU	60 ± 7 nM
target 1 insC 3' of 13,insA 3' of 11 (mixed) RNA 1: CACCCGUGCAAAAAUGCAGGGGUCUAAAACUGAGCGGAUAACCUCUCUAUGG RNA 2: GGGAAUGGAUCCACAUCUACGAAUUCGUACCAUAGAGAGCGUAUAUCCGCUCACCGAGAUCGGAAGAGCACACGU	19.1 ± 2.2 nM
target 1 insG 3' of 18,insA 3' of 2 (mixed) RNA 1: CACCCGUGCAAAAAUGCAGGGGUCUAAAACUGAGCGGAUAACCUCUCUAUGG RNA 2: GGGAAUGGAUCCACAUCUACGAAUUCGUACCAUAGGAGAGGUUAUCCGCUCAACCGAGAUCGGAAGAGCACACGU	73 ± 25 nM
target 1 C2A,C7G (mixed) RNA 1: CACCCGUGCAAAAAUGCAGGGGUCUAAAACUGAGCGGAUAACCUCUCUAUGG RNA 2: GGGAAUGGAUCCACAUCUACGAAUUCGUACCAUAGAGAGGUUAUGCGCUAACCGAGAUCGGAAGAGCACACGU	15.4 ± 0.9 nM
target 1 insA 3' of 12,insA 3' of 3 (mixed) RNA 1: CACCCGUGCAAAAAUGCAGGGGUCUAAAACUGAGCGGAUAACCUCUCUAUGG RNA 2: GGGAAUGGAUCCACAUCUACGAAUUCGUACCAUAGAGAGGAUUAUCCGCUACACCGAGAUCGGAAGAGCACACGU	20.5 ± 1.2 nM
target 1 insC 3' of 19,insU 3' of 9 (mixed) RNA 1: CACCCGUGCAAAAAUGCAGGGGUCUAAAACUGAGCGGAUAACCUCUCUAUGG RNA 2: GGGAAUGGAUCCACAUCUACGAAUUCGUACCAUCAGAGAGGUUAUUCCGCUCACCGAGAUCGGAAGAGCACACGU	~80 nM
target 1 insU 3' of 2,insG 3' of 1 (mixed) RNA 1: CACCCGUGCAAAAAUGCAGGGGUCUAAAACUGAGCGGAUAACCUCUCUAUGG RNA 2: GGGAAUGGAUCCACAUCUACGAAUUCGUACCAUAGAGAGGUUAUCCGCUCUAGCCGAGAUCGGAAGAGCACACGU	12.2 ± 0.6 nM
target 1 insU 3' of 7,insU 3' of 2 (mixed) RNA 1: CACCCGUGCAAAAAUGCAGGGGUCUAAAACUGAGCGGAUAACCUCUCUAUGG RNA 2: GGGAAUGGAUCCACAUCUACGAAUUCGUACCAUAGAGAGGUUAUCUCGCUCUACCGAGAUCGGAAGAGCACACGU	21.3 ± 1.1 nM
